Two molecules from patent US20210395393A1 can be followed below.

One may read the EC50 as the midpoint of the concentration-response curve.

In this experiment the target is TPA mutant tenecteplase (human) (UniProt P00750). Description: binding ELISA, plate coated with tenecteplase. Background: An ELISA detects its analyte on a solid surface through an enzyme-linked reagent.
Sequence of TPA mutant tenecteplase (human) (P00750 36-562, change not shown): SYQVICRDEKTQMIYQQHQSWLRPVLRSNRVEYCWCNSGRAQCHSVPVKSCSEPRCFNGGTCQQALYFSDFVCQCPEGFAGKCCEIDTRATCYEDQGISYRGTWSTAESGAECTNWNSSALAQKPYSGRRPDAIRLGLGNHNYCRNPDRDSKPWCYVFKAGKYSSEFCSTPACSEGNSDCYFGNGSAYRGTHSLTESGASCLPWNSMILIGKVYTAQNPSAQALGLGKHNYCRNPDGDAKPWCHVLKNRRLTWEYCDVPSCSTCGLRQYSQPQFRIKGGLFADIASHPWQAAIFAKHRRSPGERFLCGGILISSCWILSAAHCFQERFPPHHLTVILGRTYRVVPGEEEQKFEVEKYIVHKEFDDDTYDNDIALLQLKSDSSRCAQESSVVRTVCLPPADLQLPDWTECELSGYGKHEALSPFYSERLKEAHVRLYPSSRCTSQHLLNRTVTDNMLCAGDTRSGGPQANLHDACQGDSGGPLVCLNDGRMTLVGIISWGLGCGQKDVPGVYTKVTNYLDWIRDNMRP

B1: TPAi-1 RHP/RKA (antibody, V domains shown)
VH: QVQLVQSGAEVKKPGASVKVSCKASGNTSYWINWVRQATGQGLEWMGRIDPGGGSTGYAQKFQGRVTMTRDTSISTAYMELSSLRSEDTAVYYCASYYYAMAYWGQGTLVTVSS
VL: DVVMTQSPLSLPVTPGEPASISCRSSQSIVHSNGNTYLDWYLQKPGQSPQLLIYKVSNRASGVPDRFSGSGSGTDFTLKISRVEAEDVGVYYCFQGSHVPWTFGGGTKVEIK
For B1, the EC50 turned out to be 0.633 nM.

B2: TPAi-1 RHP/RKA Fab (Fab, V domains shown)
VH: QVQLVQSGAEVKKPGASVKVSCKASGNTSYWINWVRQATGQGLEWMGRIDPGGGSTGYAQKFQGRVTMTRDTSISTAYMELSSLRSEDTAVYYCASYYYAMAYWGQGTLVTVSS
VL: DVVMTQSPLSLPVTPGEPASISCRSSQSIVHSNGNTYLDWYLQKPGQSPQLLIYKVSNRASGVPDRFSGSGSGTDFTLKISRVEAEDVGVYYCFQGSHVPWTFGGGTKVEIK
B2 returned a concentration giving a half-maximal response (EC50) of 1.31 nM.
